Assay results as given in article PMC4864278 (The EMBO Journal, 2016).

Legend:
[1] = molecular target: ubiquitin (bovine, UniProt P0CG53 1-76, isopeptide-linked to UBE2D1); test: crystal structure; TRIM25 RING domain (8 mg/ml) mixed with isopeptide-linked UBE2D1-Ub (10 mg/ml) at a 1:1 molar ratio; 100 mM Tris pH 8.5, 10% PEG 20,000, 18°C; 2.34 Å; conditions: both partners purified
[2] = molecular target: the molecule itself; test: SAXS; SEC in line with SAXS, SWING beamline at SOLEIL, SEC-3 300 Å Agilent column, 15°C; 2.5 mg/ml TRIM25 RBCC, 6 mg/ml TRIM32 RBCC injected
[3] = molecular target: the molecule itself; test: SAXS; batch SAXS, Diamond Light Source beamline B21; at least three dilutions of each construct; concentrations as in Table 2

Row | Binder | stoichiometry N [2] | other results
1 | TRIM25 RING domain (1–82) (domain or fragment, UniProt Q14258 1-82, looked up) MAELCPLAEELSCSICLEPFKEPVTTPCGHNFCGSCLNETWAVQGSPYLCPQCRAVYQARPQLHKNTVLCNVVEQFLQADLA | – | binding result [1]: binds
2 | TRIM25 RBCC (1–433) (domain or fragment, UniProt Q14258 1-433, looked up) MAELCPLAEELSCSICLEPFKEPVTTPCGHNFCGSCLNETWAVQGSPYLCPQCRAVYQARPQLHKNTVLCNVVEQFLQADLAREPPADVWTPPARASAPSPNAQVACDHCLKEAAVKTCLVCMASFCQEHLQPHFDSPAFQDHPLQPPVRDLLRRKCSQHNRLREFFCPEHSECICHICLVEHKTCSPASLSQASADLEATLRHKLTVMYSQINGASRALDDVRNRQQDVRMTANRKVEQLQQEYTEMKALLDASETTSTRKIKEEEKRVNSKFDTIYQILLKKKSEIQTLKEEIEQSLTKRDEFEFLEKASKLRGISTKPVYIPEVELNHKLIKGIHQSTIDLKNELKQCIGRLQEPTPSSGDPGEHDPASTHKSTRPVKKVSKEEKKSKKPPPVPALPSKLPTFGAPEQLVDLKQAGLEAAAKATSSHPNS | 2 | –
3 | TRIM32 RBCC (1–354) (domain or fragment, UniProt Q13049 1-354, looked up) MAAAAASHLNLDALREVLECPICMESFTEEQLRPKLLHCGHTICRQCLEKLLASSINGVRCPFCSKITRITSLTQLTDNLTVLKIIDTAGLSEAVGLLMCRSCGRRLPRQFCRSCGLVLCEPCREADHQPPGHCTLPVKEAAEERRRDFGEKLTRLRELMGELQRRKAALEGVSKDLQARYKAVLQEYGHEERRVQDELARSRKFFTGSLAEVEKSNSQVVEEQSYLLNIAEVQAVSRCDYFLAKIKQADVALLEETADEEEPELTASLPRELTLQDVELLKVGHVGPLQIGQAVKKPRTVNVEDSWAMEATASAASTSVTFREMDMSPEEVVASPRASPAKQRGPEAASNIQQ | 4 | –
4 | TRIM32 RING/B-box2 (1–140) (domain or fragment, UniProt Q13049 1-140, looked up) MAAAAASHLNLDALREVLECPICMESFTEEQLRPKLLHCGHTICRQCLEKLLASSINGVRCPFCSKITRITSLTQLTDNLTVLKIIDTAGLSEAVGLLMCRSCGRRLPRQFCRSCGLVLCEPCREADHQPPGHCTLPVKE | – | stoichiometry N [3]: 2
